Measurements reported in patent US20180037663A1 (OHIO STATE INNOVATION FOUNDATION, published 2018).

Biological target: T1, bovine submaxillary mucin (bovine)
T1 construct: Used as surrogate antigen for TAG-72; also called BSM
Assay: binding study of FIG. 14 (inhibition dot blot), compared with 3E8.IgG

fold worse binder than 3E8.IgG: ~16 fold
B1: 3E8.scFv (scFv)
scFv: GSSGDIVMTQSPDSLAVSLGERATINCKSSQSVLYSSNNKNYLAWYQQKPGQPPKLLIYWASTRESGVPDRFSGSGSGTDFTLTISSLQAEDVAVYYCQQYYSYPLTFGGGTKVEIKLSADDAKKDAAKKDDAKKDDAKKDLQVQLVQSGAEVKKPGASVKVSCKASGYTFTDHAIHWVRQAPGQRLEWMGYFSPGNDDFKYSQKFQGRVTITADKSASTAYMELSSLRSEDTAVYYCARSWIMQYWGQGTLVTVSS
notes: Monomeric scFv purified from the E. coli periplasm; Labelled at lysines with fluorescein (dot blots) or biotin (HRP dot blot, IHC); also called scFv of 3E8; single chain variable fragment of 3E8
